Measured values reported in patent publication US20220073646A1 (Hoffmann-La Roche, published 2022).
Residue numbers refer to the chain shown, from its start. In names and notes the source's numbering stands.

Legend:
[1] = molecular target: T1, human OX40 on cells (human, UniProt P43489 29-277); experiment: cell-based or functional assay
T1 sequence: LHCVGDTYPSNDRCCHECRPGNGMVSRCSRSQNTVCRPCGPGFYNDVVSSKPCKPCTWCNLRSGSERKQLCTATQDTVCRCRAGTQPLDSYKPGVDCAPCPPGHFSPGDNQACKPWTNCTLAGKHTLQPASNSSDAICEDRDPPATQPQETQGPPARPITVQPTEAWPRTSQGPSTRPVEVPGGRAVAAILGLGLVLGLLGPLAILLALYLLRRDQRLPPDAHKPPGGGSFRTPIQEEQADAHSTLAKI

[2] = molecular target: T1, human OX40 on cells; experiment: cell-based or functional assay; remark: listed apart in the source
[3] = molecular target: T2, recombinant human OX40 His (human); experiment: SPR, captured IgG, OX40 His analyte
T2 construct: ectodomain with avi and hexahistidine tag; also called human Ox40 avi His
T2 chain: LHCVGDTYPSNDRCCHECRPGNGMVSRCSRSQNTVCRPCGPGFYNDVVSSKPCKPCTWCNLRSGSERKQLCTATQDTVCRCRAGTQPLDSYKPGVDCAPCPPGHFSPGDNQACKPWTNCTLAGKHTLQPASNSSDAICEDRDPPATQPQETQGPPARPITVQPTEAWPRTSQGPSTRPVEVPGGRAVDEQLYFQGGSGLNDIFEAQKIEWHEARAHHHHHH
Description: (§1) All SPR experiments were performed on a Biacore T200 at 25° C. with HBS-EP as running buffer (0.01 M HEPES pH 7.4, 0.15 M NaCl, 3 mM EDTA, 0.005% Surfactant P20, Biacore, Freiburg/Germany).
Setup 2) Anti-human Fc antibody (Biacore, Freiburg/Germany) was directly coupled on a CM5 chip at pH 5.0 using the standard amine coupling kit (Biacore, Freiburg/Germany). The immobilization level was approximately 8000 RU. […] The dissociation was monitored for 120 seconds. Bulk refractive index differences were corrected for by subtracting the response obtained on reference flow cell.

[4] = molecular target: recombinant cynomolgus OX40 Fc(kih) (cynomolgus, UniProt P0DOX5 223-449 = IgG part, biotin on C-terminal Avi tag where used biotinylated); experiment: SPR avidity format, antigen on SA chip
Description: as §1
Immobilization levels up to 800 resonance units (RU) were used.

[5] = molecular target: T3, human fibroblast activation protein (huFAP) on cells (human, UniProt Q12884 1-760); experiment: flow cytometry, NIH/3T3-huFAP clone 39 cells
T3 construct: also called NIH/3T3-huFAP clone 39; NIH/3T3-huFAP clone 19

[6] = molecular target: T4, cynomolgus OX40 on activated cynomolgus PBMC (cynomolgus, UniProt P43489 29-214 (human entry)); experiment: flow cytometry, activated cynomolgus CD4 T cells
T4 construct: whole, on cells
T4 chain: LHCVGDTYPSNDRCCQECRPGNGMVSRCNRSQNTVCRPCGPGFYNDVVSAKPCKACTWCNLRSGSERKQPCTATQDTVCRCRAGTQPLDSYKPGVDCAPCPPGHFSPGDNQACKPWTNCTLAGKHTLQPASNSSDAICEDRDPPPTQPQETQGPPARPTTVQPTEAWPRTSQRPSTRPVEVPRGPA
Description: Centrifugation was performed at 520×g, without brake at room temperature for 30 minutes. Adjacent centrifugation at 150×g at room temperature for 15 minutes was performed to reduce platelets count followed by several centrifugation steps with 400×g at room temperature for 10 minutes to wash PBMC with sterile DPBS.
Then, plates were washed four times with 200 μL/well 4° C. FACS buffer. […] Plates where washed twice with 200 μL/well 4° C.

[7] = molecular target: T5, recombinant murine GITR Fc(kih) (murine, UniProt P0DOX5 223-449 = IgG part, biotin on C-terminal Avi tag); experiment: SPR ProteOn XPR36, Fab as analyte
T5 construct: also called mu GITR-Fc
Description: (§2) Immobilization of antigens (ligand): Recombinant antigens were diluted with PBST (10 mM phosphate, 150 mM sodium chloride pH 7.4, 0.005% Tween 20) to 10 μg/ml, then injected at 30 μl/minute in vertical orientation. Injection of analytes: For ‘one-shot kinetics’ measurements, injection direction was changed to horizontal orientation, two-fold dilution series of purified Fab were injected simultaneously along separate channels 1-5, with association times of 200 s, and dissociation times of 240 s, respectively. Buffer (PBST) was injected along the sixth channel to provide an “in-line” blank for referencing. Association rate constants (kon) and dissociation rate constants (koff) were calculated using a simple one-to-one Langmuir binding model in ProteOn Manager software by simultaneously fitting the association and dissociation sensorgrams. The equilibrium dissociation constant (KD) was calculated as the ratio koff/kon.

[8] = molecular target: T6, recombinant human GITR Fc(kih) (human, UniProt P0DOX5 223-449 = IgG part, biotin on C-terminal Avi tag where used biotinylated); experiment: SPR ProteOn XPR36, biotinylated GITR-Fc on NLC chip, Fab analyte
T6 construct: also called hu GITR-Fc; human monomeric GITR-Fc fusion
Description: as §2

[9] = molecular target: T7, recombinant cynomolgus GITR Fc(kih) (cynomolgus, UniProt P0DOX5 223-449 = IgG part, biotin on C-terminal Avi tag where used biotinylated); experiment: as above
T7 construct: also called cy GITR-Fc
Description: as §2

[10] = molecular target: T8, human 4-1BB on cells (human, UniProt Q07011 24-255); experiment: cell-based or functional assay
[11] = molecular target: T9, mouse 4-1BB on activated mouse splenocytes (mouse, UniProt P20334 24-256); experiment: flow cytometry, activated mouse T cells
Description: (§3) Cells were incubated for 30 min at 4° C., washed twice with 200 μL/well FACS-buffer and resuspended for fixation with 50 μL/well DPBS containing 1% (v/v) formaldehyde. The next day cells were resuspended in 200 μL/well FACS buffer and acquired using the 2-laser Cantoll (BD Bioscience with DIVA software) or 5-laser Fortessa (BD Bioscience with DIVA software). Gates were set on CD8⁺ and CD4⁺ T cells and the median fluorescence intensity (MFI) of the secondary detection antibody was used to analyze binding of primary antibodies. Using Graph Pad Prism (Graph Pad Software Inc.) data was baselined by subtracting the blank values (no primary antibody added) and the EC₅₀ values were calculated using non-linear regression curve fit (robust fit).

[12] = molecular target: T10, recombinant human 4-1BB Fc(kih) (human, UniProt P0DOX5 223-449 = IgG part, biotin on C-terminal Avi tag where used biotinylated); experiment: SPR, captured IgG, 4-1BB Fc(kih) analyte
T10 construct: also called hu4-1BB; biotinylated human 4-1BB
Description: as §1
Anti-human Fab antibody (Biacore, Freiburg/Germany) was directly coupled on a CM5 chip at pH 5.0 using the standard amine coupling kit (Biacore, Freiburg/Germany). The immobilization level was approximately 7500 RU. […] The dissociation was monitored for 120 seconds. Bulk refractive index differences were corrected for by subtracting the response obtained on reference flow cell.

[13] = molecular target: T8, human 4-1BB on cells; experiment: flow cytometry, activated human CD8 T cells
Description: (§4) Plates were centrifuged 4 minutes with 400×g at 4° C. and supernatant was discarded. […] Afterwards cells were washed once with 200 μL/well cold FACS buffer (DPBS supplied with 2% (v/v) FBS, 5 mM EDTA pH8 (Amresco, Cat. No. E177) and 7.5 mM sodium azide (Sigma-Aldrich S2002)). […] Cells were washed four times with 200 μL/well 4° C.
Cells were washed twice with 200 μL FACS buffer/well and fixated by resuspending in 50 μL/well DPBS containing 1% Formaldehyde (Sigma, HT501320-9.5L). Cells were acquired the same or next day using a 3-laser Canto II (BD Bioscience with DIVA software) or a 5-laser Fortessa (BD Bioscience with DIVA software) or 3-laser MACSQuant Analyzer 10 (Miltenyi Biotech). Gates were set on CD8⁺ and CD4⁺ T cells and the median fluorescence intensity (MFI) or geo mean of fluorescence intensity of the secondary detection antibody was used to analyze binding of primary antibodies. Using Graph Pad Prism (Graph Pad Software Inc.) data was baselined by subtracting the blank values (no primary antibody added) and the EC50 values were calculated using non-linear regression curve fit (robust fit).

[14] = molecular target: T8, human 4-1BB on cells; experiment: flow cytometry, activated human CD8+ T cells
Description: as §4
Cells were washed twice with 200 μL FACS buffer/well and fixated by resuspending in 50 μL/well DPBS containing 1% Formaldehyde (Sigma, HT501320-9.5L). Cells were acquired the same or next day using 3-laser MACSQuant Analyzer 10 (Miltenyi Biotech). Gates were set on CD8⁺ and CD4⁺ T cells and the geo mean of fluorescence intensity (MFI) of the secondary detection antibody was used to analyze binding of primary antibodies. Using Graph Pad Prism (Graph Pad Software Inc.) data was baselined by subtracting the blank values (no primary antibody added) and the EC₅₀ values were calculated using non-linear regression curve fit (robust fit).

[15] = molecular target: recombinant cynomolgus 4-1BB Fc(kih) (cynomolgus, UniProt P0DOX5 223-449 = IgG part, biotin on C-terminal Avi tag where used biotinylated); experiment: SPR, captured IgG, cyno 4-1BB Fc(kih) analyte
Description: as §1
Anti-human Fab antibody (Biacore, Freiburg/Germany) was directly coupled on a CM5 chip at pH 5.0 using the standard amine coupling kit (Biacore, Freiburg/Germany). The immobilization level was approximately 9000 RU.

[16] = molecular target: T3, human fibroblast activation protein …; experiment: flow cytometry, WM-266-4 and NIH/3T3-huFAP clone 19
[17] = molecular target: T11, cynomolgus 4-1BB on activated cynomolgus PBMC (cynomolgus, UniProt Q07011 24-255 (human entry)); experiment: flow cytometry, activated cynomolgus CD4 T cells
T11 chain: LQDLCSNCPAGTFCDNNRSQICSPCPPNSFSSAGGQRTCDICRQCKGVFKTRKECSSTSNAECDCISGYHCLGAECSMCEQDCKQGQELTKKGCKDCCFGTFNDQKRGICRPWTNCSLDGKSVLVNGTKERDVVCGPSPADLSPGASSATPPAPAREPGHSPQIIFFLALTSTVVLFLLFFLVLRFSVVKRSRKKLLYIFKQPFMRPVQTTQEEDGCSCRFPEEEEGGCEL
Description: (§5) Cells were washed twice with FACS buffer and resuspended in 100 μL/well FACS buffer supplied with 0.2 μg/mL DAPI to discriminated dead from living cells. Cells were immediately acquired using a 5-laser Fortessa (BD Bioscience with DIVA software). Gates were set on CD8⁺ and CD4⁺ T cells and the median fluorescence intensity (MFI) of the secondary detection antibody was used to analyze binding of primary antibodies. Using Graph Pad Prism (Graph Pad Software Inc.) data was baselined by subtracting the blank values (no primary antibody added) and the EC₅₀ values were calculated using non-linear regression curve fit (robust fit).

[18] = molecular target: T11, cynomolgus 4-1BB on activated …; experiment: flow cytometry, activated cynomolgus CD8 T cells
Description: as §5

[19] = molecular target: T12, hu4-1BB-SNAP fusion protein on Hek293 EBNA cells (human, UniProt Q07011 24-255, labeled with the FRET donor Terbium); experiment: cell FRET competition against d2-labeled anti-4-1BB tracer, 4 h
T12 construct: not shown: SNAP tag

[20] = molecular target: T10, recombinant human 4-1BB Fc(kih); experiment: SPR
Description: as §1
(§6) Immobilization levels up to 100 resonance units (RU) were used. […] Complex dissociation was monitored for 220 seconds. Bulk refractive index differences were corrected for by subtracting the response obtained in a reference flow cell, where no protein was immobilized.

[21] = molecular target: T8, human 4-1BB on cells; experiment: flow cytometry, activated human T cells
[22] = molecular target: T9, mouse 4-1BB on activated mouse …; experiment: flow cytometry, activated murine CD4 T cells
Description: as §3

[23] = molecular target: T9, mouse 4-1BB on activated mouse …; experiment: flow cytometry, activated murine CD8 T cells
Description: as §3

[24] = molecular target: T13, recombinant murine 4-1BB AcTEV (murine, UniProt P20334 24-187); experiment: SPR, captured IgG, murine 4-1BB AcTEV analyte
T13 construct: murine 4-1BB Fc(kih) cleaved with AcTEV protease, Fc removed
T13 sequence: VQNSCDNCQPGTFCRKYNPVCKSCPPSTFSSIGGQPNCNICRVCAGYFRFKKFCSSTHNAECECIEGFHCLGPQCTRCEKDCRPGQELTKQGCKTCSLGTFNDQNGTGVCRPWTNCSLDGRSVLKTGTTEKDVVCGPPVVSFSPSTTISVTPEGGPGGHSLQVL
Description: as §1
Anti-human Fc antibody (Biacore, Freiburg/Germany) was directly coupled on a CM5 chip at pH 5.0 using the standard amine coupling kit (Biacore, Freiburg/Germany). The immobilization level was about 7500 RU. […] The dissociation was monitored for 120 seconds. Bulk refractive index differences were corrected for by subtracting the response obtained on reference flow cell.

[25] = molecular target: T14, recombinant murine 4-1BB Fc(kih) (murine, UniProt P0DOX5 223-449 = IgG part, biotin on C-terminal Avi tag where used biotinylated); experiment: SPR avidity format, murine 4-1BB Fc(kih) on SA chip
T14 construct: also called mu4-1BB
Excerpt: as §6

B1: 1G4 P329GLALA IgG1 (antibody, V domains shown)
VH: QVQLVQSGAEVKKPGSSVKVSCKASGGTFSSYAISWVRQAPGQGLEWMGGIIPIFGTANYAQKFQGRVTITADKSTSTAYMELSSLRSEDTAVYYCAREYGSMDYWGQGTTVTVSS
VL: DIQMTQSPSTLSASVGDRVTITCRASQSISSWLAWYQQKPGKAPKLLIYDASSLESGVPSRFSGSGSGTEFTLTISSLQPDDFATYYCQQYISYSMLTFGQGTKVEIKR
notes: anti-OX40
EC50 of NFκB activation in HeLa_hOx40_NFκB_luc1 reporter cells with secondary anti-human IgG Fcγ antibody [1]: 3.59 nM
EC50 of rescuing suboptimal TCR stimulation with plate-immobilized anti-OX40 binder (preactivated human CD4 T cells) [2]: 0.697 nM
Kd [3]: 250 nM
koff [3]: 0.57 s⁻¹
kon [3]: 2.3e+06 M⁻¹ s⁻¹
binding result [4]: binds
binding result [5]: no binding
EC50 [6]: 48.2 nM

B2: clone 8A06 purified Fab (Fab, V domains shown)
VH: B1 VH with E99G, G101Y, S102A, M103I
VL: SSELTQDPAVSVALGQTVRITCQGDSLRSYYASWYQQKPGQAPVLVIYGKNNRPSGIPDRFSGSSSGNTASLTITGAQAEDEADYYCNSPQTSGSAVFGGGTKLTVL
notes: bacterially expressed Fab of the lambda-DP88 library with CH1/CL and tags; also called 8A06 (Fab-format)
binding result [7]: no binding
Kd [8]: 4.4 nM
Kd [9]: 67 nM

B3: 12B3 P329GLALA IgG1 (antibody, V domains shown)
VH: QVQLVQSGAEVKKPGSSVKVSCKASGGTFSSYAISWVRQAPGQGLEWMGGIIPIFGTANYAQKFQGRVTITADKSTSTAYMELSSLRSEDTAVYYCARSEFRFYADFDYWGQGTTVTVSS
VL: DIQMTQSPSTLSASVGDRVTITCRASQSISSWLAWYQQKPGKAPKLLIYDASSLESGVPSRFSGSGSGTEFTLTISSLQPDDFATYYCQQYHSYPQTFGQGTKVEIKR
notes: anti-4-1BB; also called 12B3 IgG; 12B3 huIgG1 P329G LALA
EC50 of increase of IFNγ secretion in activated CD8+ T cells (surface-immobilized IgG) [10]: 0.07 nM
binding result [11]: no binding
Kd [12]: 30 nM
koff [12]: 0.001 s⁻¹
kon [12]: 34000 M⁻¹ s⁻¹
EC50 [13]: 0.95 nM
EC50 [14]: 0.4 nM
Kd [15]: 20 nM
koff [15]: 0.00078 s⁻¹
kon [15]: 38000 M⁻¹ s⁻¹
binding result [16]: no binding
EC50 [17]: 0.59 nM
EC50 [18]: 0.47 nM
EC50 [19]: 1.4 nM
bracketed interval of the EC50 (not explained) [19]: 0.9 to 2.1 nM

B4: 20G2 P329GLALA IgG1 (antibody, V domains shown)
VH: B3 VH with E100Y, F101Y, R102W, F103E, Y104S, A105Y, D106P
VL: DIQMTQSPSTLSASVGDRVTITCRASQSISSWLAWYQQKPGKAPKLLIYDASSLESGVPSRFSGSGSGTEFTLTISSLQPDDFATYYCQQQHSYYTFGQGTKVEIKR
notes: also called anti-mouse 4-1BB clone 20G2 huIgG1 P329G LALA
binding result [20]: no binding
binding result [21]: no binding
EC50 [22]: 10.1 nM
EC50 [23]: 16.4 nM
Kd [24]: 14 nM
koff [24]: 0.00034 s⁻¹
kon [24]: 24000 M⁻¹ s⁻¹
binding result [25]: binds
